Results as given in patent US20110217334A1.

Biological target: serum IgE of birch pollen allergic individuals
Assay: ELISA inhibition, Bet v 1a immobilized, BM4 as inhibitor in serial dilutions

fold reduced patients' IgE binding capacity compared to Bet v 1a: 100 to 1000 fold
B1: BM4 (protein)
chain: GVFNYETETTSVIPAARLFKAFILDGDNLFPKVAPQAISSVENIEGNGGPGTIKKISFPEGFPFKYVKDRVDEVDHTNFKYNYSVIEGGPIGDTLEKISNEIKIVATPSGSTIKSISNKYHTKGDHEVKAEQVKASKEMGETLLRAVESYLLAHSDAYN
